For assay [1], the target named is (H3-H4)2 tetramer (recombinant Xenopus laevis histones) (X. laevis) (UniProt P84233). Briefly: single-molecule photobleaching steps (optical tweezers with fluorescence detection); H2A-Cy3 hexasomes ligated to 2.5-kb DNA handles.
Assay [2] has the same target. Briefly: single-molecule photobleaching steps (optical tweezers with fluorescence detection); H2A-Cy3 nucleosomes ligated to 2.5-kb DNA handles, at low tension.

On to “H2A-Cy3-H2B heterodimer (H2A labelled with one Cy3 at the C-terminal tail by sortase) (from UniProt P06897 1-130; P02281 1-126) (complex)”, for which the stoichiometry N (usually a count of units in the complex or per binding partner) in assay [1] is 1; in assay [2], 2.
